# According to paper PMC5884710, “Cork-in-Bottle Occlusion of Fluoride Ion Channels by Crystallization Chaperones” (Structure(London, England:1993), 2018):
# B1: Fluoride channel from B. pertussis (Fluc homolog Bpe) (natural protein)
# chain: MLTYAPLNFIAIGIGATLGAWLRWVLGLRLNGAGWPWGTLTANLVGGYLIGVMVALIASHPEWPAWIRLAAVTGFLGGLTTFSTFSAETVDMLERGVYATAAAYAGASLAGSLAMTGLGLATVRLLLR
# notes: Fluc family fluoride ion channel homolog Bpe from B. pertussis; homodimer of two antiparallel subunits (subunits A and B in PDB 6BQO); pET21c with Bpe gene, C-terminal hexahistidine tag; Construct as in Stockbridge et al., 2013; also called Fluc channel; Fluc homologue "Bpe"; source: E. coli, purified (as described in Stockbridge et al., 2013); reconstituted into liposomes for …
# Target: the molecule itself
# Assay: crystal structure; in meso crystals of the Bpe-S8 complex; 26% PEG 550MME, 0.1 M sodium citrate, pH 5.0; 2.8 A
protein,measurement,value
B1,stoichiometry N,2
